Measured values taken from publication PMC5095702 (Biochemistry, 2016).

Biological target: the molecule itself
Experiment: SEC

B1: KdnB from Shewanella oneidensis (enzyme, S. oneidensis, UniProt Q8EEB0 1-356, looked up)
chain: MSFKNFKVVEKMIFGRGSFVQLDDVLAAQRKADDDFVVFLVDDVHQGKPLEARIPVKAQDLLIWVNVDEEPSTIQIDALTEQVQAFNGKLPVSVVGLGGGSTMDVAKAVSLMLTNPGGSAMYQGWDLIKKPAVHHIGIPTISGTGAEASRTAVLCGPVRKLGLNSDYTVFDQIIMDSELIDGVETDQWFYTGMDCYIHCVESLEGTFLNEFSKAYAEKAMDLCRQVYLEDHPEKDDKLMMASFMGGMSIAYSQVGACHAVSYGLSYILGYHHGIGNCIAFDVLEEFYPEGVAEFRLMMKKHNITLPKNICKDLPDETIAKMVAVTKSMGPLWANVYGPTWEEKVTDEMLTALFRRI
stoichiometry N: 2
